{
  "source": "patent US20220396758",
  "key": {"[1]": {"test_system": "substrate protein S2-148 (two Smt3 domains separated by an extended 148 amino acid linker, charged tail, C-terminal ssrA tag)"}, "[2]": {"test_system": "substrate protein S2-35 (two Smt3 domains separated by a 35 amino acid linker, charged tail, C-terminal ssrA tag)"}, "[3]": {"test_system": "substrate protein S1 (single N-terminal Smt3 domain, 65-amino-acid charged flexible tail, C-terminal 11 amino acid ssrA tag)"}},
  "data": [
    {"substance": "covalently-linked trimer of an N-terminal truncated ClpX variant (ClpX-ΔN3)", "values": [
      {"measurement": "translocation events that included ramping state iii, number of events", "setting": "[1]", "result": "Translocation events that included ramping state iii were observed ... 66 times for protein S2-148 (4.3 hours of experimentation), when ClpX and ATP were present. In the absence of ClpX/ATP, these ramping states were never observed ... for S2-148 (1.2 hours of experimentation)"},
      {"measurement": "second ramping state vi, ionic current", "setting": "[2]", "result": "This was followed by a ~8.5 pA state (FIG. 2C, vi) that closely resembled ramping state iii"},
      {"measurement": "translocation events that included ramping state iii, number of events", "setting": "[2]", "result": "Translocation events that included ramping state iii were observed 62 times for protein S2-35 (7.3 hours of experimentation) ... when ClpX and ATP were present. In the absence of ClpX/ATP, these ramping states were never observed for S2-35 (1.7 hours of experimentation)"},
      {"measurement": "ClpX-dependent ionic current ramp (ramping state iii), average current", "setting": "[3]", "result": "a progressive downward current ramp reaching an average of ~10 pA with a median duration of 4.3 seconds"},
      {"measurement": "ClpX-dependent ionic current ramp (ramping state iii), median duration", "setting": "[3]", "result": "a progressive downward current ramp reaching an average of ~10 pA with a median duration of 4.3 seconds"},
      {"measurement": "ClpX-dependent ionic current ramp (ramping state iii), number of events", "setting": "[3]", "result": "This current ramp was observed with protein S1 a total of 45 times over ~5.5 hours of experimentation when ClpX and ATP were present; in contrast, the ramp was never observed following state ii when ClpX and ATP were absent from the trans solution over ~2.3 hours of experimentation"}
    ]}
  ]
}
